{
  "source": "the domain aggregation screens of Martell et al. (2025)",
  "data": [
    {"experiment": "soluble fraction after stress (log2 fold change); higher = more stays soluble; pooled small domains, quantitative proteomics", "conditions": "stress: 50 degC", "procedure,_shortened": "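Each library was heated to 50°C as a stress step. The libraries, made up of small protein domains, were pooled and analysed at high throughput by quantitative proteomics. The reported value is the base-two logarithm of the fold change in each protein's soluble amount after stress, taken as a measure of aggregation propensity. The higher the value, the more protein stays in solution.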", "values": [
      {"sequence": "HMVSINETAFIQIKNSSATEIKEKITALKLDELKNVTITADIRTNKLIVVGPKATINKIQELVIELDTES", "soluble fraction (log2)": 0.281},
      {"sequence": "HMVSKTEAMAVFIADKLQEGMVPANEILELYKGMQLSDRTIRNAKKQLGIVSIRKDGQWYWSL", "soluble fraction (log2)": -1.19},
      {"sequence": "HMVSLPSPLAGKVVSLTVQAGQEVKEGDEIMVLEAMKMNTQVHAPSSGRILALRVQPGDQVEEGQTLVTMG", "soluble fraction (log2)": 0.0826},
      {"sequence": "HMVSLSNQVFEKIEYDILSGKYKIGEIISEKRLSSELGVSRTPIREALGRLSEEGLVGDSPSGTVVLGI", "soluble fraction (log2)": -0.431},
      {"sequence": "HMVSRVTTPGVVGKTWQETKQILKQADLTVGSLTRDGKDVTPADGDLVTAQNPSAGQAIVRGSSVDLTFDK", "soluble fraction (log2)": 0.31},
      {"sequence": "HMVSSYTMAIQINGKLRATHDFSVDTSQEDIKKIIINLPAIQKYINGVEIKKFIIVPQKIVNIV", "soluble fraction (log2)": -2.52},
      {"sequence": "HMVSTEDEISDKLLLDFALEKLSENEKQIVKLRYYNSLTQSKTAEILNMTQVQVSRSEKKILAKLRGII", "soluble fraction (log2)": -0.267},
      {"sequence": "HMVSTGIMVVDGRGSVLQHNEAALRQLGVEVLTFESQVKEKLASEDFSVRETTAMLNGKKVRIIAFSDIR", "soluble fraction (log2)": -1.62},
      {"sequence": "HMVSVEELLSSLDPNEATVLKLLAERSSGVDELMERSGLDFSALSEAITNLELFGYIAREMDGVYSFS", "soluble fraction (log2)": -0.559},
      {"sequence": "HMVSVPDIGEKLPDFTGTPKRLLTPLLNKNDVNIIIKGDGWVVSQKPPAGTPVTKGMTIEFTL", "soluble fraction (log2)": -0.208},
      {"sequence": "HMVTDSGEIEKLVDEVIDNNPDQVQQFREGKQQVLSYLVGQAMKLSRGKANPNQVNQFLRDKL", "soluble fraction (log2)": 0.291},
      {"sequence": "HMVTDTGEIEAIIDRVISENPDSVSDFKNGKERALKFLMGQAMKESKGKANPQIVNELLLKKL", "soluble fraction (log2)": 0.264},
      {"sequence": "HMVTDVDELEKLIQKVLDSNSSQVDEYRQGKEKVFGFFVGAVMKLTKGQADPDVVNQLLKEKLSGRK", "soluble fraction (log2)": 0.195},
      {"sequence": "HMVTDVDYSTFLSQVEEGKVESVTIEDGEILFKGKDENGEARWYITGEMNDPNLVERLKDKVPSFNAPA", "soluble fraction (log2)": 0.0853},
      {"sequence": "HMVTIYQRIMLVLEDKQVSVNALSKLVDMSQTTLNTQLKGERTLSANVVAKVLVAYPDVSAEWLMRGVGTM", "soluble fraction (log2)": 0.362},
      {"sequence": "HMVTLYDGFLSELRKRIPRGAELTNTLVDMLYIEREAVYRRLRGEVPFTFIEVMTVSKELGISLDNLAQA", "soluble fraction (log2)": -1.23},
      {"sequence": "HMVTTADIILEFYSRNPNATLTQAAQHVARATGTTYSRQAISAQLKRLEVAGLVERNGHVTV", "soluble fraction (log2)": -0.393},
      {"sequence": "HMVTTLLIINVAGKVKNPGVYQLPPGSRVVDALEAAGQQLKGVDISDINLARVLVDGEQILIGSN", "soluble fraction (log2)": -1.86},
      {"sequence": "HMVTVQEGETLSAIAARSGVSVKDLVRANEIRNPDSIQEGQVLFVP", "soluble fraction (log2)": 0.0612},
      {"sequence": "HMVVADFQNYTVKPKENLYSLTKTSGLSQEELVALNPELKNGVQEGMVIKLPAAVKLMAQPE", "soluble fraction (log2)": 0.15},
      {"sequence": "HMVVLPGEVLRINVIQEGKEHGQGVGYMDDGTMVVIENGREFIGEYMEVNVTKVLQTAAGRMIFGRVD", "soluble fraction (log2)": -0.526},
      {"sequence": "HMVVLPPTEDAPEWAQVFDRLGRPESADGYKLPVPEGADPAFAKLASAKMHELGLSAKQGAALAAWWNEQA", "soluble fraction (log2)": 0.108},
      {"sequence": "HMVVMEIGANGSEVVKLQKRLNQLGYYTEHASGVYDVKTASAVNEFQRQNELNATGKADYTTLDMIYNQ", "soluble fraction (log2)": 0.02},
      {"sequence": "HMVVRRLPFGFSKRFGVLVVPGTSNPVELLYREDASMQSLLEARRVVAQPVAFKKTDVESFNAQLARAHEN", "soluble fraction (log2)": -1.23},
      {"sequence": "HMVVSDSAEIDKIVQDVIAANPKAIEDFKSGKTNVTGWLMGQVMKLSHGKANPKQATEILNKYLSK", "soluble fraction (log2)": 0.354},
      {"sequence": "HMVVTRVKAIDVVNIRKSDSETADKLGKAAVGDEFDLLEKKGNGWSKISYEGGEAYIKSEFLEPSE", "soluble fraction (log2)": 0.145},
      {"sequence": "HMVVVMEKNASSAEIEQVQERLRQAGFKIHLSQGVERTIIGAIGDRSQVDLGFLEALPGVEKVVPIMK", "soluble fraction (log2)": 0.0845},
      {"sequence": "HMVVYFGGPVMLERGIVLHTPDISTKGTINVSDDFALTAHKEILDNINKDTSSLQFKLAIGH", "soluble fraction (log2)": -0.895},
      {"sequence": "HMVWINIRDLSDLFSKSGKSENSKNILDLQTLKIEKLLGGGQINTPYTIKVKQATPSAIEKVKQAGGEVIL", "soluble fraction (log2)": -0.0218},
      {"sequence": "HMVWPETEAIVTEDFIGKKRSEVQQEGVIFEFFGEGDMVIDQLPRGGVTLNESGRVWIYLGEDTF", "soluble fraction (log2)": -0.423},
      {"sequence": "HMVYFAKNIRHLRRLRGMSQELLAAELDITRARLGAYEESRSEPPLHLLIKISEFFKLPVDIIVKNDLTKS", "soluble fraction (log2)": -3.66},
      {"sequence": "HMVYFDDEELDRFAGRAADSYTSDETDEFRDVMLTLLPADVMPWTQSIEMRGILLPEQLRDELLML", "soluble fraction (log2)": -0.764},
      {"sequence": "HMVYVPTKAEVSQQFQDASKARFDERYAIVELADGRRTMAPLAFLTKADHAWLKQLASTSPLPKGK", "soluble fraction (log2)": 0.0196},
      {"sequence": "HMWAQSVSLHGLLGRQALLIVDGKPPRAVAPGQTHLGVTVLSTDEDRAVVALAGGQRLTLRVGESPVSVG", "soluble fraction (log2)": -0.0812},
      {"sequence": "HMWMEKEELLWNDIIRGGVERGELREDTDIQEAAALFRQVFIGLAYQMSFSDGLDVGILRKRFHHIYGLLT", "soluble fraction (log2)": 0.0187},
      {"sequence": "HMWNKGETKIPTQAQNELIKRRQAGATWTSLSEWLKATYGIDIHRTNIQRWYDKEVYLDQEN", "soluble fraction (log2)": -0.316},
      {"sequence": "HMWNPVLVVRGDFPKDLATTLLKMIFAQKEALNPHILFQNLLRTDNITFRESYPYHSASKTMFRF", "soluble fraction (log2)": -0.148},
      {"sequence": "HMWPQIAGFADRFGLSDTERRIVTLMSHGRSRKIIASTLGYSQNTIRNYTRNIYAKAGVHSKQELLDLLDP", "soluble fraction (log2)": -2.13},
      {"sequence": "HMWPTPRTWSALMNELNLYKENHGYANIVDIPSEKIRRMADGIIGEDMAVRYVAFLQSHASS", "soluble fraction (log2)": -1.6},
      {"sequence": "HMWQKGEPAITGLKRISKPGLRIYSKNDELPIVYGNRGIAVISTNKGVMTGIEAKRSGVGGEVLFYV", "soluble fraction (log2)": -0.045},
      {"sequence": "HMWSAREQVVNSLREAILTSELKAGERLVLSDLSARLGVSVTPIREALQSLEREGLVQLMPHQEAVVV", "soluble fraction (log2)": 0.155},
      {"sequence": "HMWVETITTKAGITKYKFQERYTDTYSGKTKRVSVTYTSNSRQAYKLAQAELQKKIDLATNTD", "soluble fraction (log2)": -0.849},
      {"sequence": "HMYAHLGKNLEVVINKALAQEDPEKKAGFAHHIAYYMKLAYSNWHKELVHDDAIRSELDTITGGELEFSN", "soluble fraction (log2)": 0.499},
      {"sequence": "HMYAHTPEMEAMNELGLEPPVTLDEIKKTYKTLVKKYHPDHNKEDPEAEEKLKKVNMAYTILKVAYTEFEK", "soluble fraction (log2)": -0.147},
      {"sequence": "HMYALGIPVSQYRRTTQVLGHESSYPIAYEDEKQDDDFYLFKFPNIDEYDFKKIVILLKQNGITT", "soluble fraction (log2)": -1.61},
      {"sequence": "HMYDNTVTKYVNSLSVYVRKGPSTSDEIVTSLIKDTDVTVVGENGEWYKIKYKEFEGYIYKNLLSDNKT", "soluble fraction (log2)": -0.254},
      {"sequence": "HMYDRIKLLKLREKRGLTQYELAEKAGISVVTLNKIETSDMAKPFASTLKKIALALGVGIEELS", "soluble fraction (log2)": -0.121},
      {"sequence": "HMYEDGGAFLKAEREKYGLTLTDIYEHTHIPVRKLKAYEMHEEEMPDRTRALLELYFDQVAYEYES", "soluble fraction (log2)": -0.443},
      {"sequence": "HMYEDIDSAYRILEINSTVSNQEIKNAYRRMAKKYHPDKVAHLGVEHQKGAEEKFKKVQEAYILIKKRRG", "soluble fraction (log2)": -0.557},
      {"sequence": "HMYEENFSKIKNDISTIFKRHKISFTNNFISHLSSVFNTDSLTNKMELEKLDSFLINNKKVTENELLKFII", "soluble fraction (log2)": -0.025},
      {"sequence": "HMYEINEIIRERRLKKGLTQAQVAKYLGVSAPAVNKWEKGTTYPDLVLLPALARLLDTDLTTLLSF", "soluble fraction (log2)": -1.38},
      {"sequence": "HMYEVVPNMRGLTYNQATAALAAAGLKVELSDSIYDEHTQPGTVLDQSPRPNTKVKPNRVVYLTVNAF", "soluble fraction (log2)": -0.739},
      {"sequence": "HMYFDDEELDTYKGRASNAYSPDETAQFEEVMTTMRPDEVAAWLRSLQLRGINLPDELKDEAIMLVE", "soluble fraction (log2)": -0.0866},
      {"sequence": "HMYFGNSLFQARKRSGLSQEGVAEKLGVSRQTVSKWETGETVPDIYQSKKMARLYGVSLDEL", "soluble fraction (log2)": 0.0951},
      {"sequence": "HMYFNTADLKADSIHYGSTEQSVIKILGEPEYRETFVDNNVSYELFSYKGNLLLSFVENSLVSL", "soluble fraction (log2)": 0.0896},
      {"sequence": "HMYGTERILAQLANYGIPNKLAFQIQDFYKEETLQIVEQQPYRLVEDIQGMGFKIADQLAEELGI", "soluble fraction (log2)": -0.317},
      {"sequence": "HMYIDLHEIWKSLTDEEQTVVKLLETEPAHVDTLIENSQIPASRILATLTLLEVRGIVKRLPGRMFSLAD", "soluble fraction (log2)": -1.45},
      {"sequence": "HMYIENIGDYLKSHDIKPSYQRIKVFEYLMQHKNHPTVDMIYKSLVDEIPTLSKTTVYNTLNLFIEKQI", "soluble fraction (log2)": -1.74},
      {"sequence": "HMYITGAVIRKLREKNNITQLQLAERLRVSDKTISKWETGKGYPDITLLEPIAKTFSVSVTELISGDI", "soluble fraction (log2)": -1.32},
      {"sequence": "HMYKNLRAFRESLGMTQKDFAASLSIGLSTYNGYEVGAREPKSDFWIAVARKYGVTIDYLMGFSDDPHK", "soluble fraction (log2)": -1.11},
      {"sequence": "HMYKSSRASKSEVNKFLKFIIQSLDKRGFLQPGHKRQSMIRNIENIFYRTNLSDQEIRILLGIFSTLNK", "soluble fraction (log2)": -0.62},
      {"sequence": "HMYLELVTKEGGSFDEPDYWGRRKLAYEIAGKTEGNYVVVKYTAEPATSDELDRVLNLNESVIRTKILRK", "soluble fraction (log2)": 0.0508},
      {"sequence": "HMYLHSEFSPVTGQELHMKYDDSSTEEDPVMLVEGKDIQGNDFVKKIHLNDVDPENATPAEMTALRVHL", "soluble fraction (log2)": -0.541},
      {"sequence": "HMYLLPVTSTELKGNYPNPFNPETTISFDLKDAERVNLSIYNLKGQLVRTLVNSDLPIGRHRLIWDGNDS", "soluble fraction (log2)": -0.603},
      {"sequence": "HMYLPGERMRIKITALGSNPKQGVGYLPDGMMVVVDEAATLVGRFVEIEFVKFLQTNSGRMMFAKVAT", "soluble fraction (log2)": -0.224},
      {"sequence": "HMYMKGKVKWFDSKKGYGFITSENGKEIFVHFSGIAAKGFKSLNEGQTVEFEVANGAKGEQAVNVTV", "soluble fraction (log2)": -0.804},
      {"sequence": "HMYMKTITEQFGERLKKIRTQKSLSQEQLSYLADIDRSYISDVERGARNISLENIYKLASALNIPPYLVLL", "soluble fraction (log2)": -0.273},
      {"sequence": "HMYMLYQQLADSLRDKIYEGTYTFGDKIPSERTLAATFGISHLTVRKALAILEEEGLLDRRQGNGTFVRV", "soluble fraction (log2)": -1.02},
      {"sequence": "HMYNIDSFMTKNYPTMERFTLSDVQKKYKTTFGLFVKQDELASMIEKTGRFNITSSKNVKYVNR", "soluble fraction (log2)": -1.77}
    ]}
  ]
}
